Source: patent US11298402B2, “Lysosomal degradation of lipids and proteins and method of use thereof” (University of Ottawa, priority 2015, dated 2022)

Key:
[1] = system: McA-RH7777 cells (A18-C3); assay: Autophagic flux (Cyto-ID assay); format: cell-based, rat
Method: In certain non-limiting examples described herein, McA-RH7777 cells stably expressing human apoB-100 and human apoC-III (designated A18-C3) were used for the studies. […] In addition, these studies, particularly those concerning EPA- or DHA-triggered lysosomal motility and CLD degradation, were also performed using primary rat hepatocytes. Transfection of plasmids encoding proteins of interest, or transfection of siRNA specific for silencing target gene expression, was achieved using the FuGENE HP Extreme reagent (Roche). […] Quantification of cell lipid contents was achieved either by direct mass measurement (HPTLC) and counting the number of lipid droplets using Image J Lipid Droplet Counter Plug-In, or indirectly by Western blot analysis of cellular content of ADRP. Secretion of apoB and TG-rich lipoprotein was determined by Western blot analysis and metabolic labeling. Mitochondrial β-oxidation was measured using MitoSOX Red (Life Technologies) in situ. Autophagic flux was determined by using Cyto-ID assay (Enzo Life Science) and by monitoring GFP-LC3 clustering in situ. Interaction of Arl8b and subunits of the HOPS complex was determined in situ by the proximity ligation assay (Olink Biosience). Cytoplasmic pH was measured using the cytosolic pHrodo indicator reagent (Invitrogen). […]

[2] = system: HCV core protein expressing cells; assay: Imaging of HCV core protein expressing cells; format: cell-based
Description: This may be because the presence of HCV core protein may “lock” lysosomes onto the LD surface during the lysosomal engulfment process, resulting in scattered distribution of lysosomes throughout the cell cytoplasm. This situation is similar to that observed in cells after prolonged treatment with oleate (see FIG. 36, top row). White arrows indicate HCV core protein (pseudo-colored in green) and lysosomes (LysoTracker; blue) in association with LDs;
FIG. 41 provides data illustrating the effect of Arl8b “DN” on HCV core distribution and interaction between lysosomes and lipid droplets.
As shown in HCV core protein expressing cells (FIG. 41, left panel), the HCV core proteins (GFP-tagged) are bound to CLDs. The core protein binding to the CLDs apparently renders persistent lysosomal interaction with CLDs (i.e. kiss without run) and thus impaired microautophagy. As explained with reference to FIG. 39, functional microautophagy includes proper lysosomal engulfment (Kiss) and termination of this process, via lysosomal “go”, “interact”, and “back” events. As detailed herein, by introducing a putative GDP-bound form or Arl8b (Arl8b^T34N) into the HCV core protein-expressing cells, microautophagy functionality may be restored (FIG. 41, right panel). […]

[3] = system: mice; assay: Mice fed a high fat diet for 30 days, adenoviral vector via tail vein; format: in vivo; conditions: HFD 30 days, Adv-MG1023 10^9 pfu/mouse, 48 h; vs empty vector
Description: (§1) Mice were fed with a high fat diet (HFD) for 30 days, and injected with Adv-empty vector (EV) or Adv-MG1023 expressing Arl8b^T34N via the tail vein (10^9 pfu/mouse). Forty eight hours after virus injection, mice were euthanized and dissected to collect liver tissue samples. Liver tissues were frozen fresh in Cryomatrix (ThermoScientific), and then sectioned and processed for oil red o staining. Intrahepatic liver lipid droplets in the liver sections were observed under bright field microscope (Zeiss AxioImager M2).
as §1, with “In FIG. 48, mice” for “Mice”, “Adv-MG1023 vector (FIG. 46)” for “Adv-MG1023”, “tissues.” for “tissue samples.”

B1: Arl8b^T34N: putative GDP-bound, dominant negative Arl8b mutant (Thr-to-Asn at 34; SEQ ID NO: 12), expressed from plasmid or adenovirus Adv-MG1023; tagged forms used (protein)
chain: MLALISRLLDWFRSLFWKEEMELTLVGLQYSGKNTFVNVIASGQFSEDMIPTVGFNMRKVTKGNVTIKIWDIGGQPRFRSMWERYCRGVNAIVYMIDAADREKIEASRNELHNLLDKPQLQGIPVLVLGNKRDLPNALDEKQLIEKMNLSAIQDREICCYSISCKEKDNIDITLQWLIQHSKSRRS
modifications: GFP/RFP tags in some forms; T34N substitution, GDP-binding
notes: tagged forms used
[1]
  autophagic flux upon EPA treatment in transfected cells: does not induce autophagic flux
[2]
  HCV core protein distribution on CLD: displaced HCV core protein from the CLD surface
  lysosome association with LD surface: effectively displace lysosomes from LD surface
[3]
  abdominal fat accumulation: less abdominal fat
  fatty liver (Oil Red O): more resistant to fatty liver
  obesity: less obese
